Results published in patent US20020054882A1 (TAKARA SHUZO, published 2002).

What was measured:
Experiment in all cases: cell-based or functional assay
[1] = target: HA molecule of A/Adachi/2/57 (H2N2) (influenza A virus A/Adachi/2/57 (H2N2))
[2] = target: HA molecule of A/Bangkok/10/83 (H1N1) (influenza A virus A/Bangkok/10/83 (H1N1))
[3] = target: HA molecule of A/Fukuoka/C29/85 (H3N2) (influenza A virus A/Fukuoka/C29/85 (H3N2))
[4] = target: HA molecule of A/Ibaraki/1/90 (H3N2) (influenza A virus A/Ibaraki/1/90 (H3N2))
[5] = target: HA molecule of A/Izumi/5/65 (H2N2) (influenza A virus A/Izumi/5/65 (H2N2))
[6] = target: HA molecule of A/Kaizuka/2/65 (H2N2) (influenza A virus A/Kaizuka/2/65 (H2N2))
[7] = target: HA molecule of A/Kitakyushu/159/93 (H3N2) (influenza A virus A/Kitakyushu/159/93 (H3N2))
[8] = target: HA molecule of A/Kumamoto/1/65 (H2N2) (influenza A virus A/Kumamoto/1/65 (H2N2))
[9] = target: HA molecule of A/Osaka/930/88 (H1N1) (influenza A virus A/Osaka/930/88 (H1N1))
[10] = target: HA molecule of A/Sichuan/2/87 (H3N2) (influenza A virus A/Sichuan/2/87 (H3N2))
[11] = target: HA molecule of A/Suita/1/90 (H3N2) (influenza A virus A/Suita/1/90 (H3N2))
[12] = target: HA molecule of A/Yamagata/120/86 (H1N1) (influenza A virus A/Yamagata/120/86 (H1N1))
[13] = target: HA molecule of A1/FM/1/47 (H1N1) (influenza A virus A1/FM/1/47 (H1N1))
[14] = target: HA molecule of A2/Aichi/2/68 (H3N2) (influenza A virus A2/Aichi/2/68 (H3N2))
[15] = target: HA molecule of influenza B virus strain B/Nagasaki/1/87 (influenza B virus B/Nagasaki/1/87)
[16] = target: HA molecule of A/PR/8/34 (H1N1) (influenza A virus A/PR/8/34 (H1N1), UniProt P03452 18-565)
Chain of HA molecule of A/PR/8/34 (H1N1) (P03452 18-565): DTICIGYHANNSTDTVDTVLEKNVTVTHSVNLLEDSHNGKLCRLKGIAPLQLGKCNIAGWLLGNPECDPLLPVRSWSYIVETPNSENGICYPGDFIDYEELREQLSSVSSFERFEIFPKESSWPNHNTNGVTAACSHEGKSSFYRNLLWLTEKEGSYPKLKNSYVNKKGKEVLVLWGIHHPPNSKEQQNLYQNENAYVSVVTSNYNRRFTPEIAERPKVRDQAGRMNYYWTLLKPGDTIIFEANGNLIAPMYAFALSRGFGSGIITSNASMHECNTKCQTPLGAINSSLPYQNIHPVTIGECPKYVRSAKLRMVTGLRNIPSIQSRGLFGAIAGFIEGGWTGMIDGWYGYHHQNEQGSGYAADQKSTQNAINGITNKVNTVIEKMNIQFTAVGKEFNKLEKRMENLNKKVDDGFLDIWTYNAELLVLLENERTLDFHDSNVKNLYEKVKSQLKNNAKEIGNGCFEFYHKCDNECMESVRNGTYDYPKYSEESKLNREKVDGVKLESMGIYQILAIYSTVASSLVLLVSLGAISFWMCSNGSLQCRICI

## monoclonal antibody C179
[1]
  HI (hemagglutination inhibition test) (dilution ratio of ascites fluid): < 32
[2]
  HI (hemagglutination inhibition test) (dilution ratio of ascites fluid): < 32
[3]
  HI (hemagglutination inhibition test) (dilution ratio of ascites fluid): < 32
[4]
  HI (hemagglutination inhibition test) (dilution ratio of ascites fluid): < 32
[5]
  HI (hemagglutination inhibition test) (dilution ratio of ascites fluid): < 32
[6]
  HI (hemagglutination inhibition test) (dilution ratio of ascites fluid): < 32
[7]
  HI (hemagglutination inhibition test) (dilution ratio of ascites fluid): < 32
[8]
  HI (hemagglutination inhibition test) (dilution ratio of ascites fluid): < 32
[9]
  HI (hemagglutination inhibition test) (dilution ratio of ascites fluid): < 32
[10]
  HI (hemagglutination inhibition test) (dilution ratio of ascites fluid): < 32
[11]
  HI (hemagglutination inhibition test) (dilution ratio of ascites fluid): < 32
[12]
  HI (hemagglutination inhibition test) (dilution ratio of ascites fluid): < 32
[13]
  HI (hemagglutination inhibition test) (dilution ratio of ascites fluid): < 32
[14]
  HI (hemagglutination inhibition test) (dilution ratio of ascites fluid): < 32
[15]
  HI (hemagglutination inhibition test) (dilution ratio of ascites fluid): < 32

B1: monoclonal antibody C179 (antibody)
chain 1: EVKLVESGGGLVQPGGSLRLSCGTSGFTLTDDYMTWVRQPPGKALEWLGFIRDRANGYTTEYSASVKGRFTISRDNSQSIVYLQMNTLRVEDSATYYCARPKGYFPYAMDYWGQGT
chain 2: DIQMTQSPASQSASLGESVTITCLASQTIGTWLAWYQQKPGKSPQLLIYAATSLADGVPSRFSGSGSGTKFSFKISSLQAEDFVSYYCQQLYSTPW
[16]
  HI (hemagglutination inhibition test): < 32 dilution ratio of ascites fluid
